This series concerns the molecule itself. Briefly: SEC; Superdex 200 10/300 in 20 mM Tris-HCl pH 7.5, 50 mM NaCl, 5 mM EDTA; 100 uL at about 5 mg/ml injected; elution times compared to a standard curve; monomer to disulfide-linked dimer. For orientation: Size exclusion chromatography separates by hydrodynamic size, large species first.

B1: endoHCYS (FRAGCYS-endoH-His6; Endoglycosidase-H with a 7 aa cysteine-containing fragment on its N-terminus) (enzyme)
chain: SLSTGCYVKQGPTSVAYVEVNNNSMLNVGKYTLADGGGNAFDVAVIFAANINYDTGTKTAYLHFNENVQRVLDNAVTQIRPLQQQGIKVLLSVLGNHQGAGFANFPSQQAASAFAKQLSDAVAKYGLDGVDFDDEYAEYGNNGTAQPNDSSFVHLVTALRANMPDKIISLYNIGPAASRLSYGGVDVSDKFDYAWNPYYGTWQVPGIALPKAQLSPAAVEIGRTSRSTVADLARRTVDEGYGVYLTYNLDGGDRTADVSAFTRELYGSEAVRTP
notes: 7 aa fragment with a single free cysteine ('FRAGCYS') attached to the flexible N-terminus of endoH; Endoglycosidase-H (endoH), P04067, aa 47-313; has no native cysteines; The chain is written once as the protomer; two protomers join through an intermolecular disulfide between the cysteines of FRAGCYS (about 75% dimer, 25% monomer in the preparation); The structure's own numbering has Val-8 as the …
For the protein B1, the stoichiometry N (usually a count of units in the complex or per binding partner) amounted to 2.

The values are drawn from article PMC7671560, “SAXS studies of X-ray induced disulfide bond damage: Engineering high-resolution insight from a low-resolution technique” (PLoS ONE, 2020).
